In the experiment the target is serotonin receptor 1b (5-HT1b), CFP- or YFP-tagged, for FRET (human) (UniProt P28222).
UniProt P28222, sequence (P28222 whole entry): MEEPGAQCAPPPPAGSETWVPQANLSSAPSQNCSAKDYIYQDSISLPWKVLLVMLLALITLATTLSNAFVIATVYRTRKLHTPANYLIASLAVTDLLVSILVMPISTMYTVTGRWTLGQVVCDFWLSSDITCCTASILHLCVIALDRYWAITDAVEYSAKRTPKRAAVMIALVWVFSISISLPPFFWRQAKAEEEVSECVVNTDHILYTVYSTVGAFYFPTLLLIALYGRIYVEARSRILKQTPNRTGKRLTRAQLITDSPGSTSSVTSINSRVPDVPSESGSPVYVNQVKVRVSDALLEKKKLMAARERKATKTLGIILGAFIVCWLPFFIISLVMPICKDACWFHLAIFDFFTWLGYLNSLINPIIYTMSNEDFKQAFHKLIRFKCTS

In turn, “βTAAR1 (TAAR1 with the first nine amino acids of the β2-adrenoreceptor at its N-terminus), CFP- or YFP-tagged, for FRET (from UniProt P07550 1-9)” yielded a Gi/o signaling: reduction of forskolin-induced cAMP (AlphaScreen) by 10 μM 5-HT in HEK293 co-expressing TAAR1 and 5-HT1b (50% for 5-HT1b alone) of 40%.

(Values after PMC5857711.)
